Biological target: human ACE2 protein (hACE2), recombinant, His-tagged, Met1-Ser740 (human) (UniProt Q9BYF1)
Experiment: ITC

UniProt Q9BYF1, sequence (Q9BYF1 18-740): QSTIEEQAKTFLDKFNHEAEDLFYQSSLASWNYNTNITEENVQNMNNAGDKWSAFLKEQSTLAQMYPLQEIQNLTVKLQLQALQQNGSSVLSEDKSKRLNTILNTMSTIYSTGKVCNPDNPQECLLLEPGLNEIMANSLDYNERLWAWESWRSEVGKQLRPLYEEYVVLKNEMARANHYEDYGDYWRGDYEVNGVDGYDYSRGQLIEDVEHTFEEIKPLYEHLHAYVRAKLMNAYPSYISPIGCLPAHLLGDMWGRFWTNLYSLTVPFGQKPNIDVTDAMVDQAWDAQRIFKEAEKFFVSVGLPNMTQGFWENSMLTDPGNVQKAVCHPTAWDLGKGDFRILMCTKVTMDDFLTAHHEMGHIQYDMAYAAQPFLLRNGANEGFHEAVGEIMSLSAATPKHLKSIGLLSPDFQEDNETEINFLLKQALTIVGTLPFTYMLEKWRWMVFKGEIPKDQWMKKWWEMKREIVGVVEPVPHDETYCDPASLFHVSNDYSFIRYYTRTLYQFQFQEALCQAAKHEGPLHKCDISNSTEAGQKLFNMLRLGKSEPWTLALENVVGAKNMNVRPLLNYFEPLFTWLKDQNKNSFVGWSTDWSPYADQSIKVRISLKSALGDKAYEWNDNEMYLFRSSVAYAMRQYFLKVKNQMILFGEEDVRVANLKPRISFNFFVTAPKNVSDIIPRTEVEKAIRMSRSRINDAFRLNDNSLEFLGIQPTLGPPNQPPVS

SARS-CoV-1 spike RBD (RBD^CoV1), Arg306-Phe527, His-tagged (domain or fragment)
Kd: 146 nM | dH: -10.5 kcal/mol | stoichiometry N: 1.03
